Here are results for twelve molecules from patent US20230192839A1 (published 2023).

Substitutions are numbered along the chain they refer to.

First the molecules themselves.
B1: P15_F02 scFv-Fc fusion (scFv, V domains shown)
VH: QVQLVESGGGLVQAGGSLRLSCAASRRSSRSWAMHWVRQAPGKGLEWVAVISYDGRLKYYADSVKGRFTISRDNAEYLVYLQMNSLRAEDTAVYYCAAARDVDGSGYDTIDVWGQGTLVTVSS
VL: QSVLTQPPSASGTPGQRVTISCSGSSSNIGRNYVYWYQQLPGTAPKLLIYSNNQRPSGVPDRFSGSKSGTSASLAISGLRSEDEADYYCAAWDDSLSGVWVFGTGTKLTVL
notes: Tested as scFv-Fc fusion
B2: P08_D06 scFv-Fc fusion (scFv, V domains shown)
VH: QVQLVESGGGLVQAGGSLRLSCAASRRSSRSWAMHWVRQAPGKGLEWVAVISYDGRLKYYADSVKGRFTISRDNAEYLVYLQMNSLRAEDTAVYYCAADDDGDVYAGYSYGGFDYWGQGTLVTVSS
VL: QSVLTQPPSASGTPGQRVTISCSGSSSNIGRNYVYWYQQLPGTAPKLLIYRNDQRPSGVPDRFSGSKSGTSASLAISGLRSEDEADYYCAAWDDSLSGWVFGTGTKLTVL
notes: Tested as scFv-Fc fusion
B3: P05_A11 scFv-Fc fusion (scFv, V domains shown)
VH: B2 VH with D99S, G102A, V104I, Y105F, A106D, G107D, G112A, F113M
VL: QSVLTQPPSASGTPGQRVTISCSGSSSNIGRNYVYWYQQLPGTAPKLLIYMTSQRPSGVPDRFSGSKSGTSASLAISGLRSEDEADYYCASWDDNLRAWVFGTGTKLTVL
notes: Tested as scFv-Fc fusion
B4: P14_E03 scFv-Fc fusion (scFv, V domains shown)
VH: QVQLVESGGGLVQAGGSLRLSCAASRRSSRSWAMHWVRQAPGKGLEWVAVISYDGRLKYYADSVKGRFTISRDNAEYLVYLQMNSLRAEDTAVYYCAAAPRVDWSDVSSGIDYWGQGTLVTVSS
VL: QSVLTQPPSASGTPGQRVTISCSGSISNIGTNNVYWYQQLPGTAPKLLIYRNNQRPSGVPDRFSGSKSGTSASLAISGLRSEDEADYYCSAWDDSLSGVVFGTGTKLTVL
notes: Tested as scFv-Fc fusion
B5: P08_C08 scFv-Fc fusion (scFv, V domains shown)
VH: B1 VH with A99E, R100G, D101S, V102G, D103S, G104T, S105D, Y107S, D108G, T109A
VL: DIQMTQSPSSLSASVGDRVTITCRASQSIGSYLNWYQQKPGKAPKLLIYAASSLQSGVPSRFSGSGSGTDFTLTISSLQPEDFATYYCQQSYSSGSFGQGTKVEIK
notes: Tested as scFv-Fc fusion
B6: P04_C09 scFv-Fc fusion (scFv, V domains shown)
VH: QVQLVESGGGLVQAGGSLRLSCAASRRSSRSWAMHWVRQAPGKGLEWVAVISYDGRLKYYADSVKGRFTISRDNAEYLVYLQMNSLRAEDTAVYYCAAEANESDSGGIDVWGQGTLVTVSS
VL: B5 VL with S28T, S31G, S91G, S96A
notes: Tested as scFv-Fc fusion
B7: P07_C04 scFv-Fc fusion (scFv, V domains shown)
VH: QVQLVESGGGLVQAGGSLRLSCAASRRSSRSWAMHWVRQAPGKGLEWVAVISYDGRLKYYADSVKGRFTISRDNAEYLVYLQMNSLRAEDTAVYYCAAEPDGEGTNGGLDIWGQGTLVTVSS
VL: B5 VL with S28N, G30S, S31R, A50S, S56T, S96A
notes: Tested as scFv-Fc fusion
B8: P16_E06 scFv-Fc fusion (scFv, V domains shown)
VH: QVQLVESGGGLVQAGGSLRLSCAASRRSSRSWAMHWVRQAPGKGLEWVAVISYDGRLKYYADSVKGRFTISRDNAEYLVYLQMNSLRAEDTAVYYCAAEGGDYPGTSDGGLDIWGQGTLVTVSS
VL: B5 VL with G30S, S31N, A50G, S94A, S96T
notes: Tested as scFv-Fc fusion
B9: P04_C05 scFv-Fc fusion (scFv, V domains shown)
VH: QVQLVESGGGLVQAGGSLRLSCAASRRSSRSWAMHWVRQAPGKGLEWVAVISYDGRLKYYADSVKGRFTISRDNAEYLVYLQMNSLRAEDTAVYYCAAGLPWTDYWGQGTLVTVSS
VL: QSVLTQPPSASGTPGQRVTISCSGSNSNIGSNYVSWYQQLPGTAPKLLIYSNNQRPSGVPDRFSGSKSGTSASLAISGLRSEDEADYYCAAWDDRLSVVFGTGTKLTVL
notes: Tested as scFv-Fc fusion
B10: P01_H04 scFv-Fc fusion (scFv, V domains shown)
VH: B1 VH with A99D, R100M, V102D, D103M, G104L, G106Y, D108N, T109S, I110F, V112I
VL: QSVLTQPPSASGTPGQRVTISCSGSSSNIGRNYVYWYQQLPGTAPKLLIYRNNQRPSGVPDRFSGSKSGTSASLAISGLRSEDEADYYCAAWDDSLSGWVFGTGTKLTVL
notes: Tested as scFv-Fc fusion
B11: P07_H08 scFv-Fc fusion (scFv, V domains shown)
VH: QVQLVESGGGLVQAGGSLRLSCAASRRSSRSWAMHWVRQAPGKGLEWVAVISYDGRLKYYADSVKGRFTISRDNAEYLVYLQMNSLRAEDTAVYYCAAGFDWGWDSSDIYSAMDYWGQGTLVTVSS
VL: DIQMTQSPSSLSASVGDRVTITCRASQNIGRYLHWYQQKPGKAPKLLIYSASNLQSGVPSRFSGSGSGTDFTLTISSLQPEDFATYYCQQSYSSPFTFGQGTKVEIK
notes: Tested as scFv-Fc fusion
B12: P01_F02 scFv-Fc fusion (scFv, V domains shown)
VH: QVQLVESGGGLVQAGGSLRLSCAASRRSSRSWAMHWVRQAPGKGLEWVAVISYDGRLKYYADSVKGRFTISRDNAEYLVYLQMNSLRAEDTAVYYCAADVESALAYGEPYHHMDVWGQGTLVTVSS
VL: B3 VL with M51R, S91T, N95S, R97S, A98G
notes: Tested as scFv-Fc fusion

T2 sequence (P20138 18-259 limits assumed): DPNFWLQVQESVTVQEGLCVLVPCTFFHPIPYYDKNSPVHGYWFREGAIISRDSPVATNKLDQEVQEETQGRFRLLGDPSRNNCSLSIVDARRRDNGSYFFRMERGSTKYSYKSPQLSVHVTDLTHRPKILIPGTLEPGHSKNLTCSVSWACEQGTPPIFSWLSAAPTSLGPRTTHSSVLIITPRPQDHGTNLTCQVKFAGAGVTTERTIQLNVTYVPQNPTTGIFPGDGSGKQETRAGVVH

The target in one test is T1, human epidermal growth factor receptor antigen (human, UniProt P00533 25-645, limits assumed).
T1 construct: whole entry named; also called EGFR
As to the kind of experiment: SPR (Biacore T200), 37 C, scFv-Fc, 10 uM MTX. As for the experimental part:
(§1) All binding kinetics analysis was performed on label-free Biacore surface plasmon biosensors (Biacore T200™ from GE Life Sciences) at 37° C. in 10 mM Hepes pH 7.4, 150 mM NaCl, 0.05% Tween-20 (HBST+), with or without 10 µM MTX. The Biacore data were processed in Biacore T200 Evaluation Software, and the data were double-referenced (Myszka, 1999, J Mol Recognit 12(5):279-284) and fit globally to a simple Langmuir with mass transport model to determine the equilibrium dissociation constant, KD, from the ratio of the kinetic rate constants (KD = koff/kₒₙ). In some cases the binding of antigen was very low (or not detectable) in the presence of 10 µM MTX and as a result kinetic rate constants could not be accurately determined. In these cases, a KD (or KD limit) was estimated based on the binding response at the highest analyte concentration tested or based on the typical limit of detection for a Biacore T200.
(§2) The first 4 rounds of panning used biotinylated EGFR antigen captured on streptavidin or neutravidin coated 96-well plates. […] 1536 clones were randomly chosen from the 4th and 5th round of panning against the EGFR antigen and their binding specificity determined by phage ELISA.
(§3) “*”: For interactions where kₒₙ and koff are reported, the KD was calculated using koff/kₒₙ.
Molecule B1 gave a Kd of 2530 nM, a koff of 0.13 s⁻¹ and a kon of 50000 M⁻¹ s⁻¹.
As to B2, the Kd came to 1390 nM, the koff amounted to 0.033 s⁻¹ and the on-rate constant (kon) is 24000 M⁻¹ s⁻¹.
Consider B3, for which the Kd came out at 580 nM, the koff came to 0.05 s⁻¹ and the association rate constant (kon) is 87000 M⁻¹ s⁻¹.
Take B4: the dissociation constant (Kd) came out at 25 nM, the koff is 0.00072 s⁻¹ and the on-rate (kon) was found to be 29000 M⁻¹ s⁻¹.

The next test concerns the target T2, human CD33 antigen (human, UniProt P20138 18-259, limits assumed).
T2 construct: whole entry named; also called Siglec-3
As to the kind of experiment: SPR (Biacore T200), 37 C, scFv-Fc, 0 uM MTX. The method, then: as §1
On to B5, for which the Kd stood at 72 nM, the off-rate (koff) was 0.0045 s⁻¹ and the kon was determined as 63000 M⁻¹ s⁻¹.
With B6, the Kd was 12 nM, the koff amounted to 0.0018 s⁻¹ and the kon worked out at 160000 M⁻¹ s⁻¹.
Molecule B7 displayed a Kd of 31 nM, a dissociation rate constant (koff) of 0.0029 s⁻¹ and an on-rate (kon) of 95000 M⁻¹ s⁻¹.
Taken in the same sequence, the figures for B8 were 92 nM, 0.011 s⁻¹ and 120000 M⁻¹ s⁻¹.
Take B9: the Kd amounted to 25 nM, the koff stood at 0.0021 s⁻¹ and the kon amounted to 83000 M⁻¹ s⁻¹.

A further test has as its target T2, human CD33 antigen. As to the kind of experiment: SPR (Biacore T200), 37 C; KD at 10 uM MTX / KD at 0 uM MTX. As for the experimental part:
as §1
As for B5, the “Ratio: KD with MTX / KD without MTX” value was 7.6.
As to B6, the “Ratio: KD with MTX / KD without MTX” value worked out at 17.7.
For B7, the “Ratio: KD with MTX / KD without MTX” value is 4.7.
Take B8: the “Ratio: KD with MTX / KD without MTX” value is 12.7.
For B9, the “Ratio: KD with MTX / KD without MTX” value was found to be 12.

The target in another test is T1, human epidermal growth factor receptor …. As to the kind of experiment: SPR (Biacore T200), 37 C, scFv-Fc, 0 uM MTX. The method, then: as §1, §2
In turn, B1 registered a Kd of 266 nM, a dissociation rate constant (koff) of 0.022 s⁻¹ and an association rate constant (kon) of 82000 M⁻¹ s⁻¹.
In turn, B10 yielded a dissociation constant Kd of 889 nM, an off-rate constant (koff) of 0.076 s⁻¹ and an association rate constant (kon) of 85000 M⁻¹ s⁻¹.
As to B11, binding was put at a Kd of 823 nM, the koff is 0.27 s⁻¹ and the kon came out at 330000 M⁻¹ s⁻¹.
Molecule B2 displayed a dissociation constant (Kd) of 185 nM, a koff of 0.013 s⁻¹ and a kon of 71000 M⁻¹ s⁻¹.
For B3, the equilibrium dissociation constant (Kd) was 235 nM, the koff is 0.028 s⁻¹ and the kon was 120000 M⁻¹ s⁻¹.
Taken in the same sequence, the figures for B4 were 6.3 nM, 0.00067 s⁻¹ and 110000 M⁻¹ s⁻¹.
For B12 the same measures were 188 nM, 0.011 s⁻¹ and 61000 M⁻¹ s⁻¹.

For the next test the target is unchanged. As to the kind of experiment: SPR (Biacore T200), 37 C; KD at 10 uM MTX / KD at 0 uM MTX. The method, then:
as §1, §2
On to B1, for which the “Ratio: KD with MTX / KD without MTX” value was 9.5.
For the molecule B10, the “Ratio: KD with MTX / KD without MTX” value was greater than 2.
In the case of B11, the “Ratio: KD with MTX / KD without MTX” value is greater than 11.
As for B2, the “Ratio: KD with MTX / KD without MTX” value stood at 7.5.
With B3, the “Ratio: KD with MTX / KD without MTX” value was 2.5.
For B4, the “Ratio: KD with MTX / KD without MTX” value was 3.9.
Regarding B12, the “Ratio: KD with MTX / KD without MTX” value is greater than 50.

The target of another test is T2, human CD33 antigen. As to the kind of experiment: SPR (Biacore T200), 37 C, scFv-Fc, 10 uM MTX. The method, then:
as §1, §3
Regarding B5, the dissociation constant Kd turned out to be 547 nM, the koff amounted to 0.051 s⁻¹ and the kon is 94000 M⁻¹ s⁻¹.
Consider B6, for which the dissociation constant Kd was 205 nM, the koff turned out to be 0.0089 s⁻¹ and the on-rate constant (kon) is 44000 M⁻¹ s⁻¹.
Molecule B7 came in with a Kd of 144 nM, a koff of 0.025 s⁻¹ and a kon of 170000 M⁻¹ s⁻¹.
The molecule B8 came in with a Kd of 1170 nM, an off-rate (koff) of 0.087 s⁻¹ and a kon of 75000 M⁻¹ s⁻¹.
Molecule B9 registered a dissociation constant (Kd) of 298 nM, an off-rate constant (koff) of 0.013 s⁻¹ and an association rate constant (kon) of 45000 M⁻¹ s⁻¹.
